# T1: G9a and GLP (Homo sapiens, UniProt Q96KQ7+Q9H9B1)
# T1 sequence (Q96KQ7 2-1210 limits assumed): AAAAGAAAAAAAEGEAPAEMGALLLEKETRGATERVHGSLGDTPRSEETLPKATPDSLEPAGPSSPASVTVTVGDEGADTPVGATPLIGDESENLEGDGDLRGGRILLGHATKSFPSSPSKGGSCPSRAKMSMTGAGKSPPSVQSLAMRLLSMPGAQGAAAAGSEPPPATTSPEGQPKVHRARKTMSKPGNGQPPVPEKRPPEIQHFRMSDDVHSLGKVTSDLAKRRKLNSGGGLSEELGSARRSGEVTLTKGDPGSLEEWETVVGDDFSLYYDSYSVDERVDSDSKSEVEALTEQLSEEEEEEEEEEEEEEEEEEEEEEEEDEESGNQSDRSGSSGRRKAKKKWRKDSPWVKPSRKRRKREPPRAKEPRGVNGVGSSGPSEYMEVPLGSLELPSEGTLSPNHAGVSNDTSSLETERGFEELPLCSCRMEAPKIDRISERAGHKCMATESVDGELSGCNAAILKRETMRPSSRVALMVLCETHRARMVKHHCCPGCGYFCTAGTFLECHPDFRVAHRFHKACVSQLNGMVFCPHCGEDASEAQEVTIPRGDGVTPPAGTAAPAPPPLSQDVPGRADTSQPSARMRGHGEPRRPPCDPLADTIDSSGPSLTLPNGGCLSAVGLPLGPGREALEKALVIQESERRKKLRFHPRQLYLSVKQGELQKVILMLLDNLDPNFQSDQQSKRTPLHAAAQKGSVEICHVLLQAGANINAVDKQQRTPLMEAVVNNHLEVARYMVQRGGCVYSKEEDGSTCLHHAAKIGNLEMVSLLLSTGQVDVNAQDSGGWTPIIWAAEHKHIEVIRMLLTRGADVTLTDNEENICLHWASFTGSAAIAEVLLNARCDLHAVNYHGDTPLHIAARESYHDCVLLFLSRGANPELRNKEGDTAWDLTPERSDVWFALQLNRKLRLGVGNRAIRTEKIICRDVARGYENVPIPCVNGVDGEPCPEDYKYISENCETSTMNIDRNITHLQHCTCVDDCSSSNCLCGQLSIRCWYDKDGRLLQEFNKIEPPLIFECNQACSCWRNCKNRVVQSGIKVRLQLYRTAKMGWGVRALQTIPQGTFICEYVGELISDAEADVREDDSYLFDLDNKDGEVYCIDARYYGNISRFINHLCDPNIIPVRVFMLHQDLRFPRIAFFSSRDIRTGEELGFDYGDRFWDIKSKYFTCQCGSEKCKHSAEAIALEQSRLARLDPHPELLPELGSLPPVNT
# T1 sequence (Q9H9B1 2-1298 limits assumed): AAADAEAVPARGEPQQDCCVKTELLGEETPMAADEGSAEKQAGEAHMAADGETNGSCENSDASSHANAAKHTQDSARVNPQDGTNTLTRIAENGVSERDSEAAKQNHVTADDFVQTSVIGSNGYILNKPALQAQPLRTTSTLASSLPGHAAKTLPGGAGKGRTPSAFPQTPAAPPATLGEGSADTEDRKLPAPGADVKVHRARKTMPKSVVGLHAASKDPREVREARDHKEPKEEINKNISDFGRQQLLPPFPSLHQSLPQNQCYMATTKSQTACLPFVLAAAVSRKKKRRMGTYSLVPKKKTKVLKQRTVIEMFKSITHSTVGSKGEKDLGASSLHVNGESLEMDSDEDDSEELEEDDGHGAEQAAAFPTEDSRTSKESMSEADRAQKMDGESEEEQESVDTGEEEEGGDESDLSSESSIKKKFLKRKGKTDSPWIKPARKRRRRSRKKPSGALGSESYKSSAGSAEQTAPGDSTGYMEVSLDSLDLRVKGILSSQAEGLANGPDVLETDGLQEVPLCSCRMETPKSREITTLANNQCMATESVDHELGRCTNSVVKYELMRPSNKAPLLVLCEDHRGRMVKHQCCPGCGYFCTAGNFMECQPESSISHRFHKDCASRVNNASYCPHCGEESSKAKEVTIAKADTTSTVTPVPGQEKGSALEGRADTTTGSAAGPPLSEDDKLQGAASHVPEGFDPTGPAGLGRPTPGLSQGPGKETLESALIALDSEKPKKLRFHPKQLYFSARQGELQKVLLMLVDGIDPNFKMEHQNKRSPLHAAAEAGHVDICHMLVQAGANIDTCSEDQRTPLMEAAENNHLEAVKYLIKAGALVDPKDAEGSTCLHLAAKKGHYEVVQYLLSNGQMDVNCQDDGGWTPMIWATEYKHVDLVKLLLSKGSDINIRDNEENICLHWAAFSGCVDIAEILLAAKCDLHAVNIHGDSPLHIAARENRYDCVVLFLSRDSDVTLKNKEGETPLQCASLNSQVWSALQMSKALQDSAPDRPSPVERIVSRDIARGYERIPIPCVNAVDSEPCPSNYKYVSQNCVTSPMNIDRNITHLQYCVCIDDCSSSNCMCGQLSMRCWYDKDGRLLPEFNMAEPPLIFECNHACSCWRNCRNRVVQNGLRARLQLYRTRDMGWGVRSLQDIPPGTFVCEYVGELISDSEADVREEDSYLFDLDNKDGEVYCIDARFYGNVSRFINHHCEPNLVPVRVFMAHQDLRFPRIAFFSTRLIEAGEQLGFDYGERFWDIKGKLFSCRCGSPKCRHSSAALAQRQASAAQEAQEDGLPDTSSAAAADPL
# B1: GTPBP1 (protein, UniProt O00178 1-669, looked up)
# GTP-binding protein 1: MATERSRSAMDSPVPASMFAPEPSSPGAARAAAAAARLHGGFDSDCSEDGEALNGEPELDLTSKLVLVSPTSEQYDSLLRQMWERMDEGCGETIYVIGQGSDGTEYGLSEADMEASYATVKSMAEQIEADVILLRERQEAGGRVRDYLVRKRVGDNDFLEVRVAVVGNVDAGKSTLLGVLTHGELDNGRGFARQKLFRHKHEIESGRTSSVGNDILGFDSEGNVVNKPDSHGGSLEWTKICEKSTKVITFIDLAGHEKYLKTTVFGMTGHLPDFCMLMVGSNAGIVGMTKEHLGLALALNVPVFVVVTKIDMCPANILQETLKLLQRLLKSPGCRKIPVLVQSKDDVIVTASNFSSERMCPIFQISNVTGENLDLLKMFLNLLSPRTSYREEEPAEFQIDDTYSVPGVGTVVSGTTLRGLIKLNDTLLLGPDPLGNFLSIAVKSIHRKRMPVKEVRGGQTASFALKKIKRSSIRKGMVMVSPRLNPQASWEFEAEILVLHHPTTISPRYQAMVHCGSIRQTATILSMDKDCLRTGDKATVHFRFIKTPEYLHIDQRLVFREGRTKAVGTITKLLQTTNNSPMNSKPQQIKMQSTKKGPLTKRDEGGPSGGPAVGAPPPGDEASSVGAGQPAASSNLQPQPKPSSGGRRRGGQRHKVKSQGACVTPASGC
# B2: DDX49 (protein, UniProt Q9Y6V7 1-483, looked up)
# Probable ATP-dependent RNA …: MAGFAELGLSSWLVEQCRQLGLKQPTPVQLGCIPAILEGRDCLGCAKTGSGKTAAFVLPILQKLSEDPYGIFCLVLTPTRELAYQIAEQFRVLGKPLGLKDCIIVGGMDMVAQALELSRKPHVVIATPGRLADHLRSSNTFSIKKIRFLVMDEADRLLEQGCTDFTVDLEAILAAVPARRQTLLFSATLTDTLRELQGLATNQPFFWEAQAPVSTVEQLDQRYLLVPEKVKDAYLVHLIQRFQDEHEDWSIIIFTNTCKTCQILCMMLRKFSFPTVALHSMMKQKERFAALAKFKSSIYRILIATDVASRGLDIPTVQVVINHNTPGLPKIYIHRVGRTARAGRQGQAITLVTQYDIHLVHAIEEQIKKKLEEFSVEEAEVLQILTQVNVVRRECEIKLEAAHFDEKKEINKRKQLILEGKDPDLEAKRKAELAKIKQKNRRFKEKVEETLKRQKAGRAGHKGRPPRTPSGSHSGPVPSQGLV
# B3: SMC1A (protein, UniProt Q14683 1-1233, looked up)
# Structural maintenance of …: MGFLKLIEIENFKSYKGRQIIGPFQRFTAIIGPNGSGKSNLMDAISFVLGEKTSNLRVKTLRDLIHGAPVGKPAANRAFVSMVYSEEGAEDRTFARVIVGGSSEYKINNKVVQLHEYSEELEKLGILIKARNFLVFQGAVESIAMKNPKERTALFEEISRSGELAQEYDKRKKEMVKAEEDTQFNYHRKKNIAAERKEAKQEKEEADRYQRLKDEVVRAQVQLQLFKLYHNEVEIEKLNKELASKNKEIEKDKKRMDKVEDELKEKKKELGKMMREQQQIEKEIKEKDSELNQKRPQYIKAKENTSHKIKKLEAAKKSLQNAQKHYKKRKGDMDELEKEMLSVEKARQEFEERMEEESQSQGRDLTLEENQVKKYHRLKEEASKRAATLAQELEKFNRDQKADQDRLDLEERKKVETEAKIKQKLREIEENQKRIEKLEEYITTSKQSLEEQKKLEGELTEEVEMAKRRIDEINKELNQVMEQLGDARIDRQESSRQQRKAEIMESIKRLYPGSVYGRLIDLCQPTQKKYQIAVTKVLGKNMDAIIVDSEKTGRDCIQYIKEQRGEPETFLPLDYLEVKPTDEKLRELKGAKLVIDVIRYEPPHIKKALQYACGNALVCDNVEDARRIAFGGHQRHKTVALDGTLFQKSGVISGGASDLKAKARRWDEKAVDKLKEKKERLTEELKEQMKAKRKEAELRQVQSQAHGLQMRLKYSQSDLEQTKTRHLALNLQEKSKLESELANFGPRINDIKRIIQSREREMKDLKEKMNQVEDEVFEEFCREIGVRNIREFEEEKVKRQNEIAKKRLEFENQKTRLGIQLDFEKNQLKEDQDKVHMWEQTVKKDENEIEKLKKEEQRHMKIIDETMAQLQDLKNQHLAKKSEVNDKNHEMEEIRKKLGGANKEMTHLQKEVTAIETKLEQKRSDRHNLLQACKMQDIKLPLSKGTMDDISQEEGSSQGEDSVSGSQRISSIYAREALIEIDYGDLCEDLKDAQAEEEIKQEMNTLQQKLNEQQSVLQRIAAPNMKAMEKLESVRDKFQETSDEFEAARKRAKKAKQAFEQIKKERFDRFNACFESVATNIDEIYKALSRNSSAQAFLGPENPEEPYLDGINYNCVAPGKRFRPMDNLSGGEKTVAALALLFAIHSYKPAPFFVLDEIDAALDNTNIGKVANYIKEQSTCNFQAIVISLKEEFYTKAESLIGVYPEQGDCVISKVLTFDLTKYPDANPNPNEQ
# Biological target: T1, G9a and GLP
# Assay: Triple SILAC pull-down after UNC0638 treatment of 293T cells, DMSO/UNC0638 ratio of protein captured by 3×MBT;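 note: mass spectrometry (Q-Exactive) SILAC quantitation, DMSO/UNC0638 ratio computed after subtracting 3×MBTD355N mutant pull-down background, only proteins with at least twofold 3×MBT over mutant signal considered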
# Format: cell-based
# Parameters: endogenous in cells; host or cells: HEK 293T
# Settings: SILAC ratio DMSO relative to UNC0638, pull-down with 3xMBT; UNC0638 in heavy SILAC media; all values in log base 2
row,Relative to UNC0638 UNC Heavy [log base 2],Molecule
1,−0.27,B1
2,0.43,B2
3,−0.05,B3

# Same assay, conditions: SILAC ratio DMSO relative to UNC0638, pull-down with 3xMBT; UNC0638 in light SILAC media; all values in log base 2
row,Relative to UNC0638 UNC Light [log base 2],Molecule
1,0.13,B1
2,−0.49,B2
3,−0.01,B3

# Same assay, conditions: average of UNC Light and UNC Heavy experiments; all values in log base 2
row,Relative to UNC0638 Average [log base 2],Molecule
1,−0.07,B1
2,−0.03,B2
3,−0.03,B3

# Test system: 3×MBT domain of L3MBTL1
# Assay: Triple SILAC pull-down, 3xMBT/3xMBTD355N ratio (cytoplasmic, nuclear and chromatin fractions of 293T cells);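 note: proteins quantified with MaxQuant, requiring at least two unique peptides and quantification in both label directions, normalized to the mean of proteins from a digested loading control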
# Format: binding, human
# Settings: SILAC ratio 3xMBT vs 3xMBTD355N pull-down, 293T cells; experiment with UNC0638 in heavy SILAC media; all values in log base 2
row,Molecule,3xMBT/D355N UNC Heavy [log base 2]
1,B1,−0.64
2,B2,3.17
3,B3,1.31

# Same assay, conditions: SILAC ratio 3xMBT vs 3xMBTD355N pull-down, 293T cells; experiment with UNC0638 in light SILAC media; all values in log base 2
row,Molecule,3xMBT/D355N UNC Light [log base 2]
1,B1,1.80
2,B2,1.77
3,B3,1.83
